These results are taken from PMC5157838 (Analytical chemistry, 2015).

This data set concerns the molecule itself. Kind of data set: native MS.

“And” between values parts separate entries of the source, which are not always exact repeats. Identical values can stand only once.

B1: Glutamate dehydrogenase, purified from bovine liver (enzyme)
chain: not shown
The stoichiometry N is the number of molecules, sites or subunits per partner or assembly. Regarding B1, the “stoichiometry N” value is 6 and 12.
